Patent KR20230038028A (dated 2023)

How the values were obtained:
Assay in all cases: western blot of E. coli lysate supernatant
[1] = biological target: T1, His-S2p2-1(서열 686~1177 아미노산) (SARS-CoV-2, UniProt P0DTC2 686-1177)
T1 construct: range 686-1177

His-S2p2(서열 686~1207) = biological target: T2, His-S2p2(서열 686~1207) (SARS-CoV-2, UniProt P0DTC2 686-1207)
T2 construct: range 686-1207

S2p2-2(서열 686~1144) = biological target: T3, S2p2-2(서열 686~1144) (SARS-CoV-2, UniProt P0DTC2 686-1144)
T3 construct: range 686-1144

Measured: binding result

B1: 항-스파이크2(Spike2, S2) 단일클론 항체 4A5 (antibody, V domains shown)
VH: QVKLEQSGPGILQPSQTLSLTCSFSGFSLSTSGMGVSWIRQSSGKGLEWLTHIYWDDDKRYNPSLKSRLTISKDTSRNQVFLKITSVDTADTATYYCARRRMITGLYYAMDYWGQGTSVTVSS
VL: DIVMTQSTLSLPVSFGDQVSISCRSSQSLANSYGITYLSWYLHKPGQSPQLLIYGISNRFSGVPDRFSGSGSGTDFTLKISTIKPEDLGMYYCLQGTHQPWTFGGGTKLEIKR
notes: also called 4A5 항체; 항-S2 항체 4A5
binds: all assays above
